Paper PMC9922296, “Mechanistic insights into RNA surveillance by the canonical poly(A) polymerase Pla1 of the MTREC complex” (Nature Communications, 2023)

B1: Red1 residues 288-345 (Pla1 interaction region), purified [S. pombe] / C-terminal RRM domain of Pla1 (Pla1RRM, residues 352-566), purified [S. pombe] (parent)
chain 1: ISLPLLKQDDWLSSSKPFGSSTPNVVIEFDSDDDGDDFSNSKIEQSNLEKPPSNSENG
chain 2: DFFHRYKHYLTITAAAKTAEAQLKWAGLVESKLRHLVTRLELVDAIALAHPFNKGFDKVYNCSSEEEAQQVASGVTLEVAYESTDHEKLANDTVNEEKADNTESKADGSENGEKQIFPVYTTTCYIGLELEKKKGHPIKRLDISWPTQEFYELCKKWDKYDDTLMNVFIKNTKNTALPDEVFEPGEERPKATKKRSTADTAHSTEQLKRQKVSTA

Variants of: B1
Experiment: ITC
Conditions: with C-terminal RRM domain of Pla1 (Pla1RRM, residues 352-566)
A Kd of 17.9 µM was found for chain 1 V26R in this work.

Same assay, conditions: with Red1 residues 288-345 (Pla1 interaction region)
A Kd of 2.8 µM was found for chain 2 K208E R209E K211E in this work. A Kd of 17.8 µM was found for chain 2 K17E in this work.
